According to publication PMC10954691, “A structure-based designed small molecule depletes hRpn13^Pru and a select group of KEN box proteins” (Nature Communications, 2024):

Molecular target: T1, hRpn13 Pru (1-150) (human, UniProt Q16186 1-150)
T1 construct: hRpn13 (proteasome subunit, gene ADRM1), Pru domain, residues 1-150; printed MW 17017.3 g/mol; also called hRpn13 Pru domain
Test: 19F NMR of the competing small molecule XL44; 25 or 50 uM hRpn2 (940-953) added to preincubated 50 uM XL44 and equimolar hRpn13 Pru; NMR buffer (20 mM sodium phosphate, 50 mM NaCl, 2 mM DTT, 10% DMSO-d6, pH 6.5), 10 °C
Details: both partners purified

T1 sequence (Q16186 1-150): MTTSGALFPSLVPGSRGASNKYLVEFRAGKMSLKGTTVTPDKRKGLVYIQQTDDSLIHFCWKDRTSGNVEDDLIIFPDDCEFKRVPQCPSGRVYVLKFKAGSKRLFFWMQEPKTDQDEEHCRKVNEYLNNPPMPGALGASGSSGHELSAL

binding result: binds
B1: hRpn2 (940-953) (peptide, UniProt Q99460 940-953, looked up)
chain: QEPEPPEPFEYIDD
notes: hRpn2 (proteasome regulatory particle subunit), extreme C-terminus, residues 940-953; also called hRpn2 peptide; not shown: GST, N-terminal, cleaved
